# Substrate: CC(C)C[C@H](NC(=O)[C@H](Cc1cnc[nH]1)NC(=O)CNC(=O)c1ccccc1)C(=O)O
# Experiment: purified protein, by the assay type
# Assay type: biochemical
# Conditions: other: substrate hippuryl-His-Leu, human urinary ACE, pH 8.0
# Description: The role of ACE in the pathogenesis of hypertension has prompted a search for inhibitors of the enzyme that could act as antihypertensive drugs. See for example U.S. Pat. Nos. 3,891,616, 3,947,575, 4,052,511 and 4,053,651. […]. No. 4,046,889 to Ondetti et al., issued Sept. 6, 1977, and in scientific articles by Cushman, D. W. et al., Biochemistry 16, 5484 (1977), and by Ondetti, M. et al., Science 196, 441 (1977). […]. These factors include the source of enzyme, its purity, the substrate used and its concentration, and the composition of the assay buffer. All I50 data reported herein have been performed with the same assay system and same enzyme (human urinary ACE) and with an approximately 1/2 Km level of substrate and are therefore internally consistent. Discrepancies with data obtained by other workers may be observed. Indeed such discrepancies do exist in the literature, for unknown reasons. See, for example, the I50 values for BPP9a reported by Cushman, D. W., et al., Experientia 29, 1032 (1973) and by Dorer, F. E., et al., Biochim. Biophys. Acta 429, 220 (1976).
# The inhibitory potency of N^α -[3-(L-α-glutamylthio)-2-D-methyl-propanoyl]-L-proline in vitro was measured in the following assay. […] The enzyme was assayed in 0.05M Hepes buffer, pH 8.0 containing 0.1M NaCl and 0.75M Na2 SO4. […]
protein,measurement,value
"Human urinary ACE (Homo sapiens) (protein, from tissue; host or cells: human urine) LDPGLQPGNFSADEAGAQLFAQSYNSSAEQVLFQSVAASWAHDTNITAENARRQEEAALLSQEFAEAWGQKAKELYEPIWQNFTDPQLRRIIGAVRTLGSANLPLAKRQQYNALLSNMSRIYSTAKVCLPNKTATCWSLDPDLTNILASSRSYAMLLFAWEGWHNAAGIPLKPLYEDFTALSNEAYKQDGFTDTGAYWRSWYNSPTFEDDLEHLYQQLEPLYLNLHAFVRRALHRRYGDRYINLRGPIPAHLLGDMWAQSWENIYDMVVPFPDKPNLDVTSTMLQQGWNATHMFRVAEEFFTSLELSPMPPEFWEGSMLEKPADGREVVCHASAWDFYNRKDFRIKQCTRVTMDQLSTVHHEMGHIQYYLQYKDLPVSLRRGANPGFHEAIGDVLALSVSTPEHLHKIGLLDRVTNDTESDINYLLKMALEKIAFLPFGYLVDQWRWGVFSGRTPPSRYNFDWWYLRTKYQGICPPVTRNETHFDAGAKFHVPNVTPYIRYFVSFVLQFQFHEALCKEAGYEGPLHQCDIYRSTKAGAKLRKVLQAGSSRPWQEVLKDMVGLDALDAQPLLKYFQPVTQWLQEQNQQNGEVLGWPEYQWHPPLPDNYPEGIDLVTDEAEASKFVEEYDRTSQVVWNEYAEANWNYNTNITTETSKILLQKNMQIANHTLKYGTQARKFDVNQLQNTTIKRIIKKVQDLERAALPAQELEEYNKILLDMETTYSVATVCHPNGSCLQLEPDLTNVMATSRKYEDLLWAWEGWRDKAGRAILQFYPKYVELINQAARLNGYVDAGDSWRSMYETPSLEQDLERLFQELQPLYLNLHAYVRRALHRHYGAQHINLEGPIPAHLLGNMWAQTWSNIYDLVVPFPSAPSMDTTEAMLKQGWTPRRMFKEADDFFTSLGLLPVPPEFWNKSMLEKPTDGREVVCHASAWDFYNGKDFRIKQCTTVNLEDLVVAHHEMGHIQYFMQYKDLPVALREGANPGFHEAIGDVLALSVSTPKHLHSLNLLSSEGGSDEHDINFLMKMALDKIAFIPFSYLVDQWRWRVFDGSITKENYNQEWWSLRLKYQGLCPPVPRTQGDFDPGAKFHIPSSVPYIRYFVSFIIQFQFHEALCQAAGHTGPLHKCDIYQSKEAGQRLATAMKLGFSRPWPEAMQLITGQPNMSASAMLSYFKPLLDWLRTENELHGEKLGWPQYNWTPNSAR",Km,200 µM

# Source: patent US4734420A, “Anti-hypertensive agents” (priority 1980, dated 1988)
